Data reported in patent publication US20210388087A1 (Chugai, published 2021).

T1: Human CD3eg linker (human)
T1 construct: Single chain: epsilon and gamma subunits of human CD3 joined by a 29-mer linker, Flag-tag at the C-terminus; also called recombinant human CD3
T1 chain: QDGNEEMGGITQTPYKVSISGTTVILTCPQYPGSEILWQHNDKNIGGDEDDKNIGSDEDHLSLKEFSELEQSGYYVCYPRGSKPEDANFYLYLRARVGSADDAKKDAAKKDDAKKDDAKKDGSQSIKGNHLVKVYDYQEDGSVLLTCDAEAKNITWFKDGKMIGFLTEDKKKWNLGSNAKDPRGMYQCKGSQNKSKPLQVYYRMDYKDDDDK


Biological target: T1, Human CD3eg linker
Experiment: Biacore SPR, vs template H183/L072

Binder | fold change of affinity [fold]
H183/L072 VH A60V (antibody, name in Kabat numbering, V domains shown) VH: QVQLVESGGGLVQPGRSLRLSCAASGFTFSNAWMHWVRQAPGKGLEWVAQIKDKGNAYAAYYVPSVKGRFTISRDDSKNSIYLQMNSLKTEDTAVYYCHYVHYASASTVLPAFGVDAWGQGTTVTVSS VL: DIVMTQSPLSLPVTPGEPASISCQASQELVHMNRNTYLHWYQQKPGQAPRLLIYKVSNRFPGVPDRFSGSGSGTDFTLKISRVEAEDVGVYYCAQGTSVPFTFGQGTKLEIK | 1
H183/L072 VH A100fP (antibody, name in Kabat numbering, V domains shown) VH: QVQLVESGGGLVQPGRSLRLSCAASGFTFSNAWMHWVRQAPGKGLEWVAQIKDKGNAYAAYYAPSVKGRFTISRDDSKNSIYLQMNSLKTEDTAVYYCHYVHYASASTVLPPFGVDAWGQGTTVTVSS VL: DIVMTQSPLSLPVTPGEPASISCQASQELVHMNRNTYLHWYQQKPGQAPRLLIYKVSNRFPGVPDRFSGSGSGTDFTLKISRVEAEDVGVYYCAQGTSVPFTFGQGTKLEIK | 0.6
H183/L072 VH A100M (antibody, name in Kabat numbering, V domains shown) VH: QVQLVESGGGLVQPGRSLRLSCAASGFTFSNAWMHWVRQAPGKGLEWVAQIKDKGNAYAAYYAPSVKGRFTISRDDSKNSIYLQMNSLKTEDTAVYYCHYVHYASMSTVLPAFGVDAWGQGTTVTVSS VL: DIVMTQSPLSLPVTPGEPASISCQASQELVHMNRNTYLHWYQQKPGQAPRLLIYKVSNRFPGVPDRFSGSGSGTDFTLKISRVEAEDVGVYYCAQGTSVPFTFGQGTKLEIK | 1
H183/L072 VH A102M (antibody, name in Kabat numbering, V domains shown) VH: QVQLVESGGGLVQPGRSLRLSCAASGFTFSNAWMHWVRQAPGKGLEWVAQIKDKGNAYAAYYAPSVKGRFTISRDDSKNSIYLQMNSLKTEDTAVYYCHYVHYASASTVLPAFGVDMWGQGTTVTVSS VL: DIVMTQSPLSLPVTPGEPASISCQASQELVHMNRNTYLHWYQQKPGQAPRLLIYKVSNRFPGVPDRFSGSGSGTDFTLKISRVEAEDVGVYYCAQGTSVPFTFGQGTKLEIK | 1
H183/L072 VH A100I (antibody, name in Kabat numbering, V domains shown) VH: QVQLVESGGGLVQPGRSLRLSCAASGFTFSNAWMHWVRQAPGKGLEWVAQIKDKGNAYAAYYAPSVKGRFTISRDDSKNSIYLQMNSLKTEDTAVYYCHYVHYASISTVLPAFGVDAWGQGTTVTVSS VL: DIVMTQSPLSLPVTPGEPASISCQASQELVHMNRNTYLHWYQQKPGQAPRLLIYKVSNRFPGVPDRFSGSGSGTDFTLKISRVEAEDVGVYYCAQGTSVPFTFGQGTKLEIK | 1.4
H183/L072 VH A100fL (antibody, name in Kabat numbering, V domains shown) VH: QVQLVESGGGLVQPGRSLRLSCAASGFTFSNAWMHWVRQAPGKGLEWVAQIKDKGNAYAAYYAPSVKGRFTISRDDSKNSIYLQMNSLKTEDTAVYYCHYVHYASASTVLPLFGVDAWGQGTTVTVSS VL: DIVMTQSPLSLPVTPGEPASISCQASQELVHMNRNTYLHWYQQKPGQAPRLLIYKVSNRFPGVPDRFSGSGSGTDFTLKISRVEAEDVGVYYCAQGTSVPFTFGQGTKLEIK | 1.2
H183/L072 VH A98M (antibody, name in Kabat numbering, V domains shown) VH: QVQLVESGGGLVQPGRSLRLSCAASGFTFSNAWMHWVRQAPGKGLEWVAQIKDKGNAYAAYYAPSVKGRFTISRDDSKNSIYLQMNSLKTEDTAVYYCHYVHYMSASTVLPAFGVDAWGQGTTVTVSS VL: DIVMTQSPLSLPVTPGEPASISCQASQELVHMNRNTYLHWYQQKPGQAPRLLIYKVSNRFPGVPDRFSGSGSGTDFTLKISRVEAEDVGVYYCAQGTSVPFTFGQGTKLEIK | 1
H183/L072 VH A98L (antibody, name in Kabat numbering, V domains shown) VH: QVQLVESGGGLVQPGRSLRLSCAASGFTFSNAWMHWVRQAPGKGLEWVAQIKDKGNAYAAYYAPSVKGRFTISRDDSKNSIYLQMNSLKTEDTAVYYCHYVHYLSASTVLPAFGVDAWGQGTTVTVSS VL: DIVMTQSPLSLPVTPGEPASISCQASQELVHMNRNTYLHWYQQKPGQAPRLLIYKVSNRFPGVPDRFSGSGSGTDFTLKISRVEAEDVGVYYCAQGTSVPFTFGQGTKLEIK | 3.7
H183/L072 VH D52aA (antibody, name in Kabat numbering, V domains shown) VH: QVQLVESGGGLVQPGRSLRLSCAASGFTFSNAWMHWVRQAPGKGLEWVAQIKAKGNAYAAYYAPSVKGRFTISRDDSKNSIYLQMNSLKTEDTAVYYCHYVHYASASTVLPAFGVDAWGQGTTVTVSS VL: DIVMTQSPLSLPVTPGEPASISCQASQELVHMNRNTYLHWYQQKPGQAPRLLIYKVSNRFPGVPDRFSGSGSGTDFTLKISRVEAEDVGVYYCAQGTSVPFTFGQGTKLEIK | 0
H183/L072 VH A100fI (antibody, name in Kabat numbering, V domains shown) VH: QVQLVESGGGLVQPGRSLRLSCAASGFTFSNAWMHWVRQAPGKGLEWVAQIKDKGNAYAAYYAPSVKGRFTISRDDSKNSIYLQMNSLKTEDTAVYYCHYVHYASASTVLPIFGVDAWGQGTTVTVSS VL: DIVMTQSPLSLPVTPGEPASISCQASQELVHMNRNTYLHWYQQKPGQAPRLLIYKVSNRFPGVPDRFSGSGSGTDFTLKISRVEAEDVGVYYCAQGTSVPFTFGQGTKLEIK | 1
H183/L072 VH A60Y (antibody, name in Kabat numbering, V domains shown) VH: QVQLVESGGGLVQPGRSLRLSCAASGFTFSNAWMHWVRQAPGKGLEWVAQIKDKGNAYAAYYYPSVKGRFTISRDDSKNSIYLQMNSLKTEDTAVYYCHYVHYASASTVLPAFGVDAWGQGTTVTVSS VL: DIVMTQSPLSLPVTPGEPASISCQASQELVHMNRNTYLHWYQQKPGQAPRLLIYKVSNRFPGVPDRFSGSGSGTDFTLKISRVEAEDVGVYYCAQGTSVPFTFGQGTKLEIK | 0.7
H183/L072 VH A102P (antibody, name in Kabat numbering, V domains shown) VH: QVQLVESGGGLVQPGRSLRLSCAASGFTFSNAWMHWVRQAPGKGLEWVAQIKDKGNAYAAYYAPSVKGRFTISRDDSKNSIYLQMNSLKTEDTAVYYCHYVHYASASTVLPAFGVDPWGQGTTVTVSS VL: DIVMTQSPLSLPVTPGEPASISCQASQELVHMNRNTYLHWYQQKPGQAPRLLIYKVSNRFPGVPDRFSGSGSGTDFTLKISRVEAEDVGVYYCAQGTSVPFTFGQGTKLEIK | 0
H183/L072 VH A102I (antibody, name in Kabat numbering, V domains shown) VH: QVQLVESGGGLVQPGRSLRLSCAASGFTFSNAWMHWVRQAPGKGLEWVAQIKDKGNAYAAYYAPSVKGRFTISRDDSKNSIYLQMNSLKTEDTAVYYCHYVHYASASTVLPAFGVDIWGQGTTVTVSS VL: DIVMTQSPLSLPVTPGEPASISCQASQELVHMNRNTYLHWYQQKPGQAPRLLIYKVSNRFPGVPDRFSGSGSGTDFTLKISRVEAEDVGVYYCAQGTSVPFTFGQGTKLEIK | 0.9
H183/L072 VH A100P (antibody, name in Kabat numbering, V domains shown) VH: QVQLVESGGGLVQPGRSLRLSCAASGFTFSNAWMHWVRQAPGKGLEWVAQIKDKGNAYAAYYAPSVKGRFTISRDDSKNSIYLQMNSLKTEDTAVYYCHYVHYASPSTVLPAFGVDAWGQGTTVTVSS VL: DIVMTQSPLSLPVTPGEPASISCQASQELVHMNRNTYLHWYQQKPGQAPRLLIYKVSNRFPGVPDRFSGSGSGTDFTLKISRVEAEDVGVYYCAQGTSVPFTFGQGTKLEIK | 1.3
H183/L072 VH A102L (antibody, name in Kabat numbering, V domains shown) VH: QVQLVESGGGLVQPGRSLRLSCAASGFTFSNAWMHWVRQAPGKGLEWVAQIKDKGNAYAAYYAPSVKGRFTISRDDSKNSIYLQMNSLKTEDTAVYYCHYVHYASASTVLPAFGVDLWGQGTTVTVSS VL: DIVMTQSPLSLPVTPGEPASISCQASQELVHMNRNTYLHWYQQKPGQAPRLLIYKVSNRFPGVPDRFSGSGSGTDFTLKISRVEAEDVGVYYCAQGTSVPFTFGQGTKLEIK | 0.7
H183/L072 VH A100L (antibody, name in Kabat numbering, V domains shown) VH: QVQLVESGGGLVQPGRSLRLSCAASGFTFSNAWMHWVRQAPGKGLEWVAQIKDKGNAYAAYYAPSVKGRFTISRDDSKNSIYLQMNSLKTEDTAVYYCHYVHYASLSTVLPAFGVDAWGQGTTVTVSS VL: DIVMTQSPLSLPVTPGEPASISCQASQELVHMNRNTYLHWYQQKPGQAPRLLIYKVSNRFPGVPDRFSGSGSGTDFTLKISRVEAEDVGVYYCAQGTSVPFTFGQGTKLEIK | 1.2
H183/L072 VH A98P (antibody, name in Kabat numbering, V domains shown) VH: QVQLVESGGGLVQPGRSLRLSCAASGFTFSNAWMHWVRQAPGKGLEWVAQIKDKGNAYAAYYAPSVKGRFTISRDDSKNSIYLQMNSLKTEDTAVYYCHYVHYPSASTVLPAFGVDAWGQGTTVTVSS VL: DIVMTQSPLSLPVTPGEPASISCQASQELVHMNRNTYLHWYQQKPGQAPRLLIYKVSNRFPGVPDRFSGSGSGTDFTLKISRVEAEDVGVYYCAQGTSVPFTFGQGTKLEIK | 0.2
H183/L072 VH A98I (antibody, name in Kabat numbering, V domains shown) VH: QVQLVESGGGLVQPGRSLRLSCAASGFTFSNAWMHWVRQAPGKGLEWVAQIKDKGNAYAAYYAPSVKGRFTISRDDSKNSIYLQMNSLKTEDTAVYYCHYVHYISASTVLPAFGVDAWGQGTTVTVSS VL: DIVMTQSPLSLPVTPGEPASISCQASQELVHMNRNTYLHWYQQKPGQAPRLLIYKVSNRFPGVPDRFSGSGSGTDFTLKISRVEAEDVGVYYCAQGTSVPFTFGQGTKLEIK | 4.6
H183/L072 VH A60W (antibody, name in Kabat numbering, V domains shown) VH: QVQLVESGGGLVQPGRSLRLSCAASGFTFSNAWMHWVRQAPGKGLEWVAQIKDKGNAYAAYYWPSVKGRFTISRDDSKNSIYLQMNSLKTEDTAVYYCHYVHYASASTVLPAFGVDAWGQGTTVTVSS VL: DIVMTQSPLSLPVTPGEPASISCQASQELVHMNRNTYLHWYQQKPGQAPRLLIYKVSNRFPGVPDRFSGSGSGTDFTLKISRVEAEDVGVYYCAQGTSVPFTFGQGTKLEIK | 1
H183/L072 VH A100fM (antibody, name in Kabat numbering, V domains shown) VH: QVQLVESGGGLVQPGRSLRLSCAASGFTFSNAWMHWVRQAPGKGLEWVAQIKDKGNAYAAYYAPSVKGRFTISRDDSKNSIYLQMNSLKTEDTAVYYCHYVHYASASTVLPMFGVDAWGQGTTVTVSS VL: DIVMTQSPLSLPVTPGEPASISCQASQELVHMNRNTYLHWYQQKPGQAPRLLIYKVSNRFPGVPDRFSGSGSGTDFTLKISRVEAEDVGVYYCAQGTSVPFTFGQGTKLEIK | 1.3
